{"source": "paper PMC6233088", "biological_target": "RGA5_S (RGA5 982-1116), small C-terminal fragment of RGA5 carrying the HMA domain (rice) (UniProt F7J0N2)", "sequence (F7J0N2 982-1116)": "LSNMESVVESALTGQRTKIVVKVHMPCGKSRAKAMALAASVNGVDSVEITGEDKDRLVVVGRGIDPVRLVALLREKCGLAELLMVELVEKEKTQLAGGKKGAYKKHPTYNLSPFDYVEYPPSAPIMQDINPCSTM", "test": "SEC", "data": [{"substance": "dSP-AVR1-CO39 (AVR1-CO39 with its signal peptide deleted), wild type, recombinant (natural protein)", "values": [{"measurement": "stoichiometry N", "value": 1}]}]}
